One substance from publication PMC5443882 can be followed below.

Where “and” joins values, the source holds several entries; their conditions need not be identical. Equal entries are not always repeated.

Test [1] deals with LHCII, the major light-harvesting pigment-protein complex of Photosystem II (Spinacia oleracea (endogenous in spinach leaves)). The test can be described thus: fluorescence correlation spectroscopy; mixture of LHCII trimers and monomers in 0.1% DM, illuminated with blue light of 100 µmol photons m^-2 s^-1 for 30 min, diluted to 3 nM; the form is assigned by its diffusion coefficient against monomer and trimer standards.

The target is the same in test [2]. Description: native gel or EMSA; identical experiment with thylakoid membranes from dark-adapted spinach leaves solubilised in 0.1% DM, electrophoresis under illumination of increasing intensity (Fig. S4). Background: In EMSA bound probe runs differently from free probe, usually more slowly.
Test [3] shares this target. The test can be described thus: native gel or EMSA; non-denaturing gel electrophoresis of LHCII from dark-adapted leaves in 0.1% DM under constant illumination from sample loading, each slot at a different light intensity (11-1240 µmol photons m^-2 s^-1); 4 °C.
Test [4] has the same target. Description: native gel or EMSA; lipid-LHCII samples enriched with exogenously added zeaxanthin, separated by native electrophoresis; dimer bands cut out for spectroscopy.
Test [5] shares this target. Description: native gel or EMSA; non-denaturing gel electrophoresis of LHCII-HL, isolated from spinach leaves pre-illuminated with 1200 µmol photons m^-2 s^-1, suspended in 0.1% DM; 4 °C, running buffer 96 mM glycine, 12.5 mM Tris, 0.05% LDS.
Test [6] shares this target. Description: native gel or EMSA; non-denaturing gel electrophoresis of LHCII isolated from dark-adapted spinach leaves, suspended in 0.1% DM; 3% stacking and 8% separating gel, 4 °C, running buffer 96 mM glycine, 12.5 mM Tris, 0.05% LDS.

In the case of “LHCII, the major light-harvesting pigment-protein complex of Photosystem II (natural protein)”, the stoichiometry N (usually a count of units in the complex or per binding partner) in test [1] was 2; in test [2], 3 and 2; in test [3] it was 3 and 2; in test [4] it was 2; in test [5], 3 and 2; in test [6], 3. Also, the trimer/monomer ratio was 0.71 in test [5] and 2.82 in test [6].
